Patent publication US20240228648A1

How the values were obtained:
[1] = target: CD38 on the surface of Daudi cells (human) (UniProt P28907); assay: cell-based or functional assay
[2] = target: CD38 on the surface of Daudi cells (human) (UniProt P28907); assay: flow cytometry on Daudi cells, antibody 50 nM
[3] = target: CD38 on the surface of Daudi cells (human) (UniProt P28907); assay: flow cytometry on Daudi cells, antibody 300 nM
[4] = target: CD38 on the surface of Daudi cells (human) (UniProt P28907); assay: flow cytometry on Daudi cells, antibody 1.85 nM
[5] = target: CD38 on the surface of Daudi cells (human) (UniProt P28907); assay: flow cytometry on Daudi cells, antibody 16.7 nM
[6] = target: CD38 on the surface of Daudi cells (human) (UniProt P28907); assay: flow cytometry on Daudi cells, antibody 5.56 nM
[7] = target: CD38 on the surface of Daudi cells (human) (UniProt P28907); assay: flow cytometry on Daudi cells, antibody 0.069 nM
[8] = target: CD38 on the surface of Daudi cells (human) (UniProt P28907); assay: flow cytometry on Daudi cells, antibody 0.206 nM
[9] = target: CD38 on the surface of Daudi cells (human) (UniProt P28907); assay: flow cytometry on Daudi cells, antibody 1.617 nM (so in the source)
[10] = target: recombinant biotinylated CD38-avi protein (extracellular domain of human CD38) (human) (UniProt P28907); assay: capture ELISA, antibody 50 nM, biotinylated CD38-avi 0.5 ug/ml
[11] = target: recombinant biotinylated CD38-avi protein (extracellular domain of human CD38) (human) (UniProt P28907); assay: capture ELISA, antibody 12.5 nM, biotinylated CD38-avi 0.5 ug/ml
[12] = target: recombinant biotinylated CD38-avi protein (extracellular domain of human CD38) (human) (UniProt P28907); assay: capture ELISA, antibody 0.012 nM, biotinylated CD38-avi 0.5 ug/ml
[13] = target: recombinant biotinylated CD38-avi protein (extracellular domain of human CD38) (human) (UniProt P28907); assay: capture ELISA, antibody 0.049 nM, biotinylated CD38-avi 0.5 ug/ml
[14] = target: recombinant biotinylated CD38-avi protein (extracellular domain of human CD38) (human) (UniProt P28907); assay: capture ELISA, antibody 0.195 nM, biotinylated CD38-avi 0.5 ug/ml
[15] = target: recombinant biotinylated CD38-avi protein (extracellular domain of human CD38) (human) (UniProt P28907); assay: capture ELISA, antibody 0.781 nM, biotinylated CD38-avi 0.5 ug/ml
[16] = target: recombinant biotinylated CD38-avi protein (extracellular domain of human CD38) (human) (UniProt P28907); assay: capture ELISA, antibody 3.125 nM, biotinylated CD38-avi 0.5 ug/ml
[17] = target: recombinant biotinylated CD38-avi protein (extracellular domain of human CD38) (human) (UniProt P28907); assay: capture ELISA, antibody 0 nM (background), biotinylated CD38-avi 0.5 ug/ml
[18] = target: CD38 on the surface of Daudi cells (human) (UniProt P28907); assay: flow cytometry on Daudi cells, anti-human IgG-Alexa647, fit in GraphPad Prism
[19] = target: recombinant biotinylated CD38-avi protein (extracellular domain of human CD38) (human) (UniProt P28907); assay: capture ELISA: antibody captured by anti-human Fc, biotinylated CD38-avi 0.5 ug/ml, fit in GraphPad Prism
[20] = target: recombinant biotinylated CD38-avi protein (extracellular domain of human CD38) (human) (UniProt P28907); assay: competitive ELISA, no competitor: plate coated with Darzalex (2 µg/ml); biotinylated CD38 alone, captured CD38 detected with streptavidin-HRP; replicate 1
[21] = target: recombinant biotinylated CD38-avi protein (extracellular domain of human CD38) (human) (UniProt P28907); assay: competitive ELISA, no competitor: plate coated with Darzalex (2 µg/ml); biotinylated CD38 alone, captured CD38 detected with streptavidin-HRP; replicate 2
[22] = target: recombinant biotinylated CD38-avi protein (extracellular domain of human CD38) (human) (UniProt P28907); assay: competitive ELISA: plate coated with Darzalex (2 µg/ml); biotinylated CD38 (0.2 µg/ml) pre-incubated with soluble Darzalex (15 µg/ml), captured CD38 detected with streptavidin-HRP; replicate 1
[23] = target: recombinant biotinylated CD38-avi protein (extracellular domain of human CD38) (human) (UniProt P28907); assay: competitive ELISA: plate coated with Darzalex (2 µg/ml); biotinylated CD38 (0.2 µg/ml) pre-incubated with soluble Darzalex (15 µg/ml), captured CD38 detected with streptavidin-HRP; replicate 2

ADCC activity (luciferase) on Daudi cells at 0.0015 nM antibody [1]: 0.12
ADCC activity (luciferase) on Daudi cells at 0.006 nM antibody [1]: 1.32
ADCC activity (luciferase) on Daudi cells at 0.0244 nM antibody [1]: 3.88
ADCC activity (luciferase) on Daudi cells at 0.098 nM antibody [1]: 14.7
ADCC activity (luciferase) on Daudi cells at 0.39 nM antibody [1]: 40.9
ADCC activity (luciferase) on Daudi cells at 1.56 nM antibody [1]: 57.2
ADCC activity (luciferase) on Daudi cells at 6.25 nM antibody [1]: 61
ADCC activity (luciferase) on Daudi cells at 25 nM antibody [1]: 64.1
ADCC activity (luciferase) on Daudi cells at 100 nM antibody [1]: 66.5
CDC: % live Daudi cells (P1) at 0.078 nM antibody [1]: 63.9%
CDC: % live Daudi cells (P1) at 0.156 nM antibody [1]: 75.2%
CDC: % live Daudi cells (P1) at 0.3125 nM antibody [1]: 70.6%
CDC: % live Daudi cells (P1) at 0.625 nM antibody [1]: 67.4%
CDC: % live Daudi cells (P1) at 1.25 nM antibody [1]: 55.6%
CDC: % live Daudi cells (P1) at 2.5 nM antibody [1]: 47.6%
CDC: % live Daudi cells (P1) at 5 nM antibody [1]: 40.9%
CDC: % live Daudi cells (P1) at 10 nM antibody [1]: 32.3%
Mean fluorescence [2]: 1.31e+06
Mean fluorescence [3]: 1.29e+06
Mean fluorescence [4]: 574000
Mean fluorescence [5]: 1.34e+06
Mean fluorescence [6]: 1.09e+06
Mean fluorescence [7]: 9320
Mean fluorescence [8]: 46700
Mean fluorescence [9]: 158000
OD450 [10]: 0.171 OD450
OD450 [11]: 0.164 OD450
OD450 [12]: 0.135 OD450
OD450 [13]: 0.147 OD450
OD450 [14]: 0.135 OD450
OD450 [15]: 0.145 OD450
OD450 [16]: 0.172 OD450
OD450 [17]: 0.143 OD450
Kd [18]: 3.26 nM
Kd [19]: 1.64 nM
OD450 [20]: 0.377
OD450 [21]: 0.385
OD450 [22]: 0.168
OD450 [23]: 0.176
Substance: Darzalex (antibody)
